Values quoted from earlier work, collected in article PMC9709720, “An orally available small molecule that targets soluble TNF to deliver anti-TNF biologic-like efficacy in rheumatoid arthritis” (Frontiers in Pharmacology, 2022).

Test system: free soluble TNF in human synovial tissue
Design: method as in Tani et al. (2013)
Settings: one third of reported steady state concentration, synovial fluid; ref Tani et al. (2013)

etanercept
Css^f used in model: 2.2 nM

infliximab
Css^f used in model: 17 nM
